Results as given in patent US5968526A, “T cell epitopes of the major allergens from Dermatophagoides (house dust mite)” (Immulogic Pharamaceutical Corporation, priority 1995, dated 1999).

Key:
pH-solubility profile = format: physicochemical; settings: for solubility: at a pH in the range pH 6 to pH 8; for solubility (in words): aqueous buffer, superior solubility = >3 mg/ml at pH 6-8
Procedure: (§1) 50 mM sodium phosphate stock solutions:
(§2) Stock solution A: 0.66 g […] of monobasic sodium phosphate monohydrate U.S.P. and 50 mg EDTA disodium dihydrate, U.S.P. were dissolved in 100 mL of WFI. The solution was filtered through a 0.2 micron filter
(§3) Stock solution B: 0.71 g […] of dibasic sodium phosphate U.S.P. were disolved in 100 ml WFI. The solution was filtered through a 0.2 micron filter.
(§4) 2. Initial peptide dispersions
(§5) Dispersion A: 3.0 mg of each candidate peptide,DPI-21.2 (SEQ. ID. NO. 28), DFI-22.2 (SEQ. ID. NO. 93), DFI-23.31(SEQ. ID. NO. 165), DFI-26.6 (SEQ. ID. NO. 168), DPII-20.9 (SEQ. ID. NO. 169), DPII-22.14 (SEQ. ID. NO. 180) and DPII-25.15 (SEQ. ID. NO. 188), was weighed out separately and placed in separate 1.5 mL eppendoff vials with 600 μL of stock solution A. The composition was agitated for 1 seconds to mix well.
as §5, with “Dispersion B:” for “Dispersion A:”, “each peptide, DPI-21.2” for “each candidate peptide,DPI-21.2”, “solution B.” for “solution A.”, “The mixture” for “The composition”, “for 5” for “for 1”
(§6) Dispersions A and B were sonicated for 2 minutes for good homogeneity. A small volume was pipetted from each dispersion into a labeled eppendoff vial according to the following volume ratio:
(§7) The resultant solutions/suspensions were stored in the dark at about 22° C.±2 for 24 hours without agitation. The solutions were filtered and filtrates were analyzed for pH and peptide concentration.
(§8) The concentration of filtered peptide solutions was determined by HPLC analysis. In this experiment, the solubility of peptide at each pH is defined as the amount of peptide remaining in solution after filtration through a membrane filter having a 0.2 micrometer pore size. The extent of degradation of peptides was estimated by calculating the percent of total degradant peak area over the total peak area.
The pH values with respect to the solubility values was plotted and are shown in FIG. 37 for each respective peptide. As shown in the solubility curve for each peptide as represented in FIG. 37, peptides DPI-21.2 (SEQ. ID. NO. 28), DFI-22.2 (SEQ. ID. NO. 93), DFI-23.31 (SEQ. ID. NO. 165), DFI-26.6 (SEQ. ID. NO. 168), DPII-20.9 (SEQ. ID. NO. 169), DPII-22.14 (SEQ. ID. NO. 180) and DPII-25.15 (SEQ. ID. NO. 188) are each soluble at greater than 3 mg/ml at a pH in the pH range of pH 6 to pH 8.

[1] = pH-stability profile / solution stability (HPLC); format: physicochemical; settings: pH 6 to pH 8
Procedure: as §1, §2, §3, §4, §5
as §5, with “Dispersion B:” for “Dispersion A:”, “each peptide, DPI-21.2” for “each candidate peptide,DPI-21.2”, “solution B.” for “solution A.”, “The mixture” for “The composition”, “for 5” for “for 1”
as §6, §7, §8
The pH-stability profiles for each peptide DPI-21.2 (SEQ. ID. NO. 28), DFI-22.2 (SEQ. ID. NO. 93), DFI-23.31(SEQ. ID. NO. 165), DFI-26.6 (SEQ. ID. NO. 168), DPII-20.9 (SEQ. ID. NO. 169), DPII-22.14 (SEQ. ID. NO. 180) and DPII-25.15 (SEQ. ID. NO. 188) in equal concentration combination at 3, 2, and 1 mg/ml per peptide and prepared in duplicate as described above with one set stored at about 5° C. for 24 hours and one set stored at about 22° C.±2 for 24 hours, were calculated and tabulated as a function of the percentage of total of degradant peak area (FIG. 38).

human IgE = assay: direct binding ELISA of IgE to mite allergen proteins and peptides; settings: for IgE reactivity, candidate peptides: data not shown; for IgE binding (ELISA), modified peptides: plasma of 19 mite-allergic patients and pool of 18, Example XV
mast cells or basophils = assay: histamine release; format: cell-based, human; settings: data not shown
Procedure: To determine whether a peptide which binds IgE results in the release of mediators, a histamine release assay can be performed using standard reagents and protocols obtained for example, from Amac, Inc. (Westbrook, Me.). Briefly, a buffered solution of a peptide to be tested is combined with an equal volume of whole heparinized blood from an allergic subject. After mixing and incubation, the cells are pelleted and the supernatants are processed and analyzed using a radioimmunoassay to determine the amount of histamine released.

Substance: DP I-23.31: modified Der p I peptide; unique peptide (DEEGVVQESYYRYVAREQSCRRPNAE)
- solubility (pH-solubility profile): greater than 3 mg/ml
- stability (in words) [1]: acceptable solution stability
- IgE reactivity, candidate peptides (human IgE): negative
- IgE binding (ELISA), modified peptides (human IgE): No plasma samples contained IgE
- histamine release (mast cells or basophils): negative

Substance: DF I-22.2: VAATESAYLAYRNTSLDLSEQELVD, amino acid residues 40-64 of Der f I
- solubility (pH-solubility profile): greater than 3 mg/ml
- stability (in words) [1]: acceptable solution stability
- IgE reactivity, candidate peptides (human IgE): negative
- histamine release (mast cells or basophils): negative

Substance: DP II-20.9: modified Der p II peptide; unique peptide (DQVDVKDCANHEIKKVLVPGCHGSE)
- solubility (pH-solubility profile): greater than 3 mg/ml
- stability (in words) [1]: acceptable solution stability
- IgE reactivity, candidate peptides (human IgE): negative
- IgE binding (ELISA), modified peptides (human IgE): No plasma samples contained IgE
- histamine release (mast cells or basophils): negative

Substance: DP I-21.2: Der p I peptide; unique peptide (SINGNAPAEIDLRQMRTVTPIRMQ)
- solubility (pH-solubility profile): greater than 3 mg/ml
- stability (in words) [1]: acceptable solution stability
- IgE reactivity, candidate peptides (human IgE): negative
- histamine release (mast cells or basophils): negative

Substance: DP II-22: QLEAVFEANQNTKTAKIEIKASIDGLEV
- solubility (in words) (pH-solubility profile): did not meet the "superior solubility" requirement of 3 mg/ml
- stability (in words) [1]: stable
- stability (in words) ([1]; listed as SEQ. ID. NO. 207): nor did it meet the stability requirement

Substance: DP II-22.14: DKELEAVFEANQNTKTAKAE; unique peptide
- solubility (in words) (pH-solubility profile): increased by an order of magnitude
- solubility (pH-solubility profile): greater than 3 mg/ml
- stability (in words) [1]: acceptable solution stability
- IgE reactivity, candidate peptides (human IgE): negative
- IgE binding (ELISA), modified peptides (human IgE): No plasma samples contained IgE
- histamine release (mast cells or basophils): negative

Substance: DP I-26.6: modified Der p I peptide; unique peptide (DEGIKDLDAFRHYDGRTIIQRDNGYE)
- solubility (pH-solubility profile): greater than 3 mg/ml
- stability (in words) [1]: acceptable solution stability
- IgE reactivity, candidate peptides (human IgE): negative
- histamine release (mast cells or basophils): negative
